Tests used:
[1] = UV-VIS absorption / fluorescence spectroscopy; assay type: physicochemical; conditions: fluorescence spectrum in washed cells, excitation at 600 nm (Figure S3)
[2] = in water; standard of the relative method; no reference given; cited from earlier work

Question: With “cRGDfK (Arg–Gly–Asp–D–Phe–Lys) (head to tail) [SiPc‐2c(RGDfK)]” as the compound, how does the “form bound to cells (fluorescence spectrum after uptake)” value [1] read?
Answer: monomeric form is bound to cells

Question: With `CN(C)c1ccc2nc3ccc(=[N+](C)C)cc-3sc2c1` [methylene blue] as the compound, how does the “singlet oxygen quantum yield (ΦΔ) of the reference standard” value [2] read?
Answer: 0.52
